B1: TPR t1 (parent)
chain: GACCAAUCUGCCCUCAGAGCUCGAGAACAUCUUCGGAUGCAGAGGAGGCAGGCUUCGGUGGCGCGAUAGCGCCAACGUCCUCAACCUCCAAUGCAUCCCACCACAUGAUGAUGCCUGAAGAGCCUUGGUUUUUUG

Variants of: B1
Experiment: polymerase ribozyme fitness, log enrichment relative to wild type (log ratio); higher = more active; in vitro selection for triplet polymerase activity
In short: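 Genotype fitness is the logarithm of its enrichment divided by wild-type enrichment, using inverse-variance-weighted averages of replicates. That logarithm is base 2. Enrichment was measured by Illumina sequencing of input and output libraries from one triplicate in vitro selection round, with frozen incubation at −7 °C, on PCR-built, transcribed mutant libraries of each subunit of a heterodimeric triplet polymerase ribozyme, retaining genotypes with ≥10 input reads and ≥1 read per output.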

In order of rising “polymerase ribozyme fitness (log ratio)” value:
1. GACCAAUCUGCCCUCAGAGCUCGAGAACAUCUUCGGAUGCAGAGGAGGAAGGCUUCGGUGGCGCGAUAGCGACAACGUCCUCAACCUCCAAUGCAUCCCACCACAUGAUCAAGCCUGAAGAGCCUUGGUUUUUUG [C49A C72A G110C U112A]  -6.75
2. GACCAAUCUGCCCUCAGAGCUCGAGAACAUCUUCGGAUGCAGAGGAGGAAGGCUUCGGUGGCGCGAUAGCGCCAACGUCCUCAACCUCCAGUUCAUCCCACCACAUGAUGAUGCCUUAAGAGCCUUGGUUUUUUA [C49A A91G G93U G117U G135A]  -6.28
3. GACCAAUCUGCCCUCAGAGCUCGAGAACAUCUUCGGAUGCAGAGGAGGAAGGCUUCGGUGGCGCGAUAGAGCCAACGUCCUCAACCUCCAAUGCAUACCACCACAUGAUGAUGCCUGAAUAGCCUUGGUGUUUUG [C49A C70A C97A G120U U130G]  -6.14
4. GACCAAUCUGCCCUCAGAGCUCGAGAACAUCUUCGGAUGCAGAGGAGGAAGGCUUCGGUGGCGCGAUAGCGCCAACGUCCUCAACCUCCAAUGCAUCCCACCACAUGAUGCUUCCUGAAGAGCCUUGGUUUUUUG [C49A A111C G113U]  -5.03
5. GACCAAUCUGCCCUCAGAGCUCGAGAACAUCUUCGGAUGCAGAGGAGGAAGGCUUCGGUGGCGCGAUAGGGCCAACGUCCUCAACCUCCAAUGCAUCCCACCACAUGAUGAUGCCUGAAGAGCCUUGGUUUUUUG [C49A C70G]  -4.31
6. GACCAAUCUGCCCUCAGAGCUCGAGAACAUCUUCGGAUGCAGAGGAGGAAGGCUUCGGUGGCGCGAUUCCGCCAACGUCCUCAACCUCCAAUGCAUCCCACCACAUGAUGACGCCUGAAGAGCCUUGGUAUUUUG [C49A A68U G69C U112C U130A]  -4.19
7. GACCAAUCUGCCCUCAGAGCUCGAGAACAUCUUCGGAUGCAGAGGAGGAAGGCUUCGGUGGCGCGAUAGCGCCAACGUCCUCAACCUCCUAUGCAUCCCACCACAUGAUGCUACCUGAAGACCCUUGGUUUUUUG [C49A A90U A111C G113A G122C]  -3.8
8. GACCAAUCUGCCCUCAGAGCUCGAGAACAUCUUCGGAUGCAGAGGAGGAAGGCUUCGGUGGCGCGUUAGCGCCAACGUCCUCAACCUCCCAUGCAUCCCACCACAUGAUGAUGCCUGAAGAGCCUUGGUUUUUUG [C49A A66U A90C]  -3.76
9. GACCAAUCUGCCCUCAGAGCUCGAGAACAUCUUCGGAUGCAGAGGAGGACGGCUUCGGUGGCGCGAUAGCGCCAACGUCCUCAACCUCCAAUGCAUCCCACCACAUGAUGAUGCCUUAAGAGCCUUGGUUUUUUG [C49A A50C G117U]  -3.66
10. GACCAAUCUGCCCUCAGAGCUCGAGAACAUCUUCGGAUGCAGAGGAGGAAGGCUUCGGUGGCGCGAUAGCGCCAACGUCCUCAACCUCCAAUGCAUCCCACCACCUGAUGAUGCCUGGAGAGCCUUGGUAUUUUG [C49A A105C A118G U130A]  -3.62
11. GACCAAUCUGCCCUCAGAGCUCGAGAACAUCUUCGGAUGCAGAGGAGGAAGGCUUCGGUGGCGCGAUAGAGCUAACGUCCUCAACCACCAAUGCAUCCCACCACAUGAUGAUGCCUGAAGAGCCUUGGUUUUUUG [C49A C70A C73U U87A]  -3.37
12. GACCAAUCUGCCCUCAGAGCUCGAGAACAUCUUCGGAUGCAGAGGAGGAAGGCUUGGGUGGCGCGAUAUCGACAACGUCCUCAACCUCCAAUGCAUCCCACCACAUGAUGAUGCCUGAAGAGCCUUGGUUUUUUG [C49A C56G G69U C72A]  -3.13
13. GACCAAUCUGCCCUCAGAGCUCGAGAACAUCUUCGGAUGCAGAGGAGGAAGGCUUCGGUGGCGUGAUAGCGCCAACGUCCUCAACCUCCAAUGCAUCCCACCACAUGAUGAUGCCUUAAGAGCCUUGGUUUUUUG [C49A C64U G117U]  -2.9
14. GACCAAUCUGCCCUCAGAGCUCGAGAACAUCUUCGGAUGCAGAGGAGGAAGGCUUCGGUGGCGCGAUAGCGCCAACGUCCUCAACCUCCUUUGCAUCCCACCACAUGAUGCUGCCUGAGGAGCCUUGGUACUUUG [C49A A90U A91U A111C A119G U130A U131C]  -2.85
15. GACCAAUCUGCCCUCAGAGCUCGAGAACAUCUUCGGAUGCAGAGGAGGAAGGCUUCGGUGGCGCGAUAGCGUCAACUUCCUCAACCUCCAAUGCAUCCCACCACAUGAUGAUGCCUGAAGAGCCUUGGUUUUUUG [C49A C72U G77U]  -2.22
16. GACCAAUCUGCCCUCAGAGCUCGAGAACAUCUUCGGAUGCAGAGGAGUCAGGCUUCGGUGGCGCGAUAGCGCCAACGUCCUCAACCUCCAAUGCAUCCCACCACAUGAUGAUGCCCGAAGAGCCUUGGUUUUUUG [G48U U116C]  -1.64
17. GACCAAUCUGCCCUCAGAGCUCGAGAACAUCUUCGGAUGCAGAGGAGGAGGGCUUCGGUGGCGCGAUAGCGCCAACGUCCUCAACCUACAAUGCAUCCCACCACAUGAUGAUGCCUGAAGAGCCUUGGUUUUUUG [C49A A50G C88A]  -1.58
18. GACCAAUCUGCCCUCAGAGCUCGAGAACAUCUUCGGAUGCAGAGGAGGAAGGCUUCGGUGGCGCGAUAGAGCCAACGUCCUCAACCUCCAAUGCAUCCCACCACAUGAUGAUGCCUGAACAGCCUCGGUUGUUUG [C49A C70A G120C U126C U131G]  -1.57
19. GACCAAUCUGCCCUCAGAGCUCGAGAACAUCUUCGGAUGCAGAGGAGGAAGGCUUCGGUGGAGCGAUAGCUCCAACGUCCUCAACCUCCAAUGCAUCCCACCACAUGAUGAUGCCUAAAGAGCCUUGGUCUUUUG [C49A C62A G71U G117A U130C]  -1.49
20. GACCAAUCUGCCCUCAGAGCUCGAGAACAUCUUCGGAUGCAGAGGAGGAAGGUUUCGGUGGCGCGAUAGCGCCAACGUCCUCAACCUCCAAUGCAUCCCAACACAUGAUGAUGCCUGAAGAGCCUUGGUUUUUUG [C49A C53U C101A]  -1.38
21. GACCAAUCUGCCCUCAGAGCUCGAGAACAUCUUCGGAUGCAGAGGAGGAGGUCUUCGGUGGCGCGAUAGCGCCAACGUCCUCAACCUCCAAUGCAUCCCACCACUUGAUGAUGCCUGAAGAGCCUUGGUUUUUUG [C49A A50G G52U A105U]  -1.36
22. GACCAAUCUGCCCUCAGAGCUCGAGAACAUCUUCGGAUGCAGAGGAGGAAGGCUUCGGUGGCGCGAUAGAGCCAACGUCCUCAACCUCCAAUGCAUCCCACCACAUGAUGAUGCCUGAAGAGCCUUGGUUUUUUG [C49A C70A]  -1.29
23. GACCAAUCUGCCCUCAGAGCUCGAGAACAUCUUCGGAUGCAGAGGAGGAGGGCUUCGGUGGCGCGAUAGCGCCAACGUCCUCAACCUCCAAUGCAUCCCACCACAUGAUGAUGCCUGAAGAGCCUUGGUUUUUUG [C49A A50G]  -1.27
24. GACCAAUCUGCCCUCAGAGCUCGAGAACAUCUUCGGAUGCAGAGGAGGAAGGCUUCGGUGGCGCGAUAGCGCCGACGUCCUCAACCUCCAAUGCAUCCCACCACAUGAUGAUGCCGGAAGAGCCUUGGUUUUUUG [C49A A74G U116G]  -1.13
25. GACCAAUCUGCCCUCAGAGCUCGAGAACAUCUUCGGAUGCAGAGGAGGAAGGUUUCGGUGACGCGAUAGCGCCAACGUCCUCAACCUCCAAUGCAUCCCAACACAUGAUGAUGCCUGAAGAGCCUUGGUUUUUUG [C49A C53U G61A C101A]  -0.913
26. GACCAAUCUGCCCUCAGAGCUCGAGAACAUCUUCGGAUGCAGAGGAGUCAGGCUUCGGUGGCGCGAUAGCGCCAACGUCCUCAACCUCCAAUGCAUCCCACCACAUGAUGAUGCCUGAAGAGCCUUGGUCUUAUG [G48U U130C U133A]  -0.9
27. GACCAAUCUGCCCUCAGAGCUCGAGAACAUCUUCGGAUGCAGAGGAGUCAGGCUUCGGUGGCGCGAUAGCGCCAACGUCCUCAACCUCCAAUGCAUCCCACCACAUGAUGAUGCCUGAAGAGCCUUGGUUUAUUG [G48U U132A]  -0.856
28. GACCAAUCUGCCCUCAGAGCUCGAGAACAUCUUCGGAUGCAGAGGAGGAAGGCUUAGGUGGCGCGAUAGCGCCAACGUCCUCAACCUCCAAUGCAUCCCACCACAUGAUGAUGCCUGAAGAGCCUUGGUUUUUUG [C49A C56A]  -0.845
29. GACCAAUCUGCCCUCAGAGCUCGAGAACAUCUUCGGAUGCAGAGGAGGAAGGGUUCGGUGGCGCGAUAGCGCCAACGUCCUCAACCUCCAAUGCAUCCCACCACAUGAUGAUGCCUGAAGAGCCUUGGUUUUUUG [C49A C53G]  -0.789
30. GACCAAUCUGCCCUCAGAGCUCGAGAACAUCUUCGGAUGCAGAGGAGUCAGGCUUCGGUGGCGCGAUAGCGCCAACGUCCUCAACCUCCAAUGCAUCCCACCACAUGAUGAUGCCUGAAGAGCCUUGGUUUUUGG [G48U U134G]  -0.783
31. GACCAAUCUGCCCUCAGAGCUCGAGAACAUCUUCGGAUGCAGAGGAGGAAGGCUUCGGUGGCGCGAUAGCGGCAACGUCCUCAACCUCCAAUGCAUCCCACCACAUGAUGAUGCCUGAAGAGCCUUGGUUUCUUG [C49A C72G U132C]  -0.77
32. GACCAAUCUGCCCUCAGAGCUCGAGAACAUCUUCGGAUGCAGAGGAGGAAGGCUUCGGUGGCGCGAUAGCGACAACGUCCUCAACCUCCAAUGAAUCCCACCACAUGAUGAUGCCUGAAGAGCCUUGGUUUUUUG [C49A C72A C94A]  -0.633
33. GACCAAUCUGCCCUCAGAGCUCGAGAACAUCUUCGGAUGCAGAGGAGGAUGGCUUCGGUGGUGCGAUAGCGCCAACGUCCUCAACCUGCAAUGCAUCCCACCACAUGAUGAUGCCUGAAGAGUCUUGGUUUUUUG [C49A A50U C62U C88G C123U]  -0.464
34. GACCAAUCUGCCCUCAGAGCUCGAGAACAUCUUCGGAUGCAGAGGAGGACGGCUUCGGUGGCGCGAUAGCGCCAACGUCCUCAACUUCCAAUGCAUCCCACCACAUGAUGAUGCCUGAAGAGCCUUGGUUUUUUG [C49A A50C C86U]  -0.434
35. GACCAAUCUGCCCUCAGAGCUCGAGAACAUCUUCGGAUGCAGAGGAGGAAGGCUUCGGUGGCGCGAUAGCGCCAACGUCCUCUACCUCCAAUGCAUCCCACCACAUGAUGAUGCCUGAAGAGCCUUGGUUUUUUG [C49A A83U]  -0.343
36. GACCAAUCUGCCCUCAGAGCUCGAGAACAUCUUCGGAUGCAGAGGAGGAAGGCUUCGGUGGCGCGAUAGCGCCAACGUCCUCAACCUCCAAUGCAUCCCACCACAUGAUGAUGCCUGAAGAGCCUUGGUUUUUUG [C49A]  -0.241
37. GACCAAUCUGCCCUCAGAGCUCGAGAACAUCUUCGGAUGCAGAGGAGUCAGGCUUCGGUGGCGCGAUAGCGCCAACGUCCUCAACCUCCAAUGCAUCCCACCACAUGAUGAUGCCUGAAGAGCCUUGGUUCUUUG [G48U U131C]  -0.204
38. GACCAAUCUGCCCUCAGAGCUCGAGAACAUCUUCGGAUGCAGAGGAGGACGGCUUCGGUGGCGCGAUAGCGCCAACGUCCUCAACCUCCAAUGCAUCCCACCACAUGAUGAUGCCUGAGGAGCCUUGGUUUUUUG [C49A A50C A119G]  0.187
39. GACCAAUCUGCCCUCAGAGCUCGAGAACAUCUUCGGAUGCAGAGGAGGAAGGCUUUGGUGGCGCGAUAGCGCCAACGUCCUCAACCUCCAAUGCAUCCCACCACAUGAUGAUGCCUGAAGAGACUUGGUUUUUUG [C49A C56U C123A]  0.705
40. GACCAAUCUGCCCUCAGAGCUCGAGAACAUCUUCGGAUGCAGAGGAGGAAGGCUUCGGUGGCGCGAUAGCGACAACGUCCUCCACCUCCAAUGCAUCCCAACACAUGAUGAUGCCUGAAGUGCCUUGGUUUUUUG [C49A C72A A83C C101A A121U]  0.741
41. GACCAAUCUGCCCUCAGAGCUCGAGAACAUCUUCGGAUGCAGAGGAGGAAGGCUUCGGUGGUGCGAUAGCGCCAACGUCCUCAAUCUCCAAUGCAUCCCACCACAUGAUGAUGCCUGAAGAGCGUUGGUUUUUUG [C49A C62U C85U C124G]  1.34
42. GACCAAUCUGCCCUCAGAGCUCGAGAACAUCUUCGGAUGCAGAGGAGGAAGGCUUUGGUGGCGCGAUAGCGCCAACGUCCUCAACCUCCAAUGCAUCCCACCACAUGAUGAUGCCUGAAGUGCCUUGGUUUUUUG [C49A C56U A121U]  1.74
